From publication PMC10092738, “Structural insights into the mechanism of adaptive ribosomal modification by Pseudomonas RimK” (Proteins, 2022)

What was measured:
[1] = biological target: T1, RimKPA (Pseudomonas aeruginosa, UniProt Q9HTZ2); experiment: X-ray crystal structure, […] A; details: ATP binding site; co-purified from expression host; weak density, interpreted as ADP
T1 construct: gene rimK; full ORF in pET29a, C-terminal hexahistidine tag, E. coli BL21 (DE3) pLysS; tetramer
T1 sequence (Q9HTZ2 1-301): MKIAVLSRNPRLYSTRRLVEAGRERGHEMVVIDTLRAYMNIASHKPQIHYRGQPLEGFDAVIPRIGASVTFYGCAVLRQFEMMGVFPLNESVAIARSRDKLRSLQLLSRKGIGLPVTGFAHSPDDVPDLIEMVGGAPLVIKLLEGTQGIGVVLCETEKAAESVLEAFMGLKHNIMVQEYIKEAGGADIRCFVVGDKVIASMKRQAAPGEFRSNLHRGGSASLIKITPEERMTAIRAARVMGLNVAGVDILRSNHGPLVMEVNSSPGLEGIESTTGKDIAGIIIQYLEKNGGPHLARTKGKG

[2] = biological target: T1, RimKPA; experiment: PK/LDH-coupled ATPase assay, NADH oxidation at […] nm; format: biochemical; details: activator; 25 uM cdG, 2.5 uM RimK, ATP as substrate; pH 9.0, 20 mM MgSO4, 25 C
[3] = biological target: T2, RimKPS (Pseudomonas syringae group genomosp. 3, UniProt Q88AZ9); experiment: as above; format: biochemical; details: activator; 25 uM cdG, 1.5 uM RimK, ATP as substrate; pH 9.0, 20 mM MgSO4, 25 C
T2 construct: gene rimK; full ORF in pET29a, C-terminal hexahistidine tag, E. coli BL21 (DE3) pLysS; tetramer
T2 sequence (Q88AZ9 1-301): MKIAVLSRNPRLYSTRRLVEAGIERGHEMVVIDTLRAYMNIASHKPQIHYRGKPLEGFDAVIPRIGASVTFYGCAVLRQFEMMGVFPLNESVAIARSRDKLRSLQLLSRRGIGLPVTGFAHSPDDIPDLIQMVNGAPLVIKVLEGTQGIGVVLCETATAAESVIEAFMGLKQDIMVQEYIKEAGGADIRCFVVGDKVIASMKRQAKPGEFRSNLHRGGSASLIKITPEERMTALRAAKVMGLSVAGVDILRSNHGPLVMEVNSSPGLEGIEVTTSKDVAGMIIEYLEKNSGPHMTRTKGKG

[4] = biological target: P. aeruginosa PAO1 RimK (P. aeruginosa PAO1) (UniProt B7V3U4); experiment: crystal structure; RimKPA at 17 mg/ml, sitting-drop vapor diffusion at 293 K, 0.2 M potassium sodium tartrate, 0.1 M bis-tris propane pH 7.5, 20% PEG 3350; 2.4 Å, P2(1), eight copies in the asymmetric unit
[5] = biological target: P. syringae pv. tomato DC3000 RimK (P. syringae pv. tomato DC3000) (UniProt Q88AZ9)
[6] = biological target: the molecule itself; experiment: crystal structure; RimKPS at 3.7 mg/ml, sitting-drop vapor diffusion at 293 K, 0.2 M calcium chloride, 0.1 M HEPES pH 7.0, 20% PEG6000; ATP and cdG in the cryoprotectant; 2.9 Å, P1, 16 copies in the asymmetric unit
[7] = substrate: Nc1ncnc2c1ncn2[C@@H]1O[C@H](COP(=O)(O)OP(=O)(O)OP(=O)(O)O)[C@@H](O)[C@H]1O; experiment: purified protein; details: 100 mM Tris-HCl pH 9.0, 20 mM MgSO4, 25 C, 1.5 uM RimK, no RimB
[8] = substrate: Nc1ncnc2c1ncn2[C@@H]1O[C@H](COP(=O)(O)OP(=O)(O)OP(=O)(O)O)[C@@H](O)[C@H]1O; experiment: purified protein; format: biochemical, Pseudomonas fluorescens; details: 100 mM Tris-HCl pH 9.0, 20 mM MgSO4, 25 C, 1.5 uM RimK, no RimB

With `Nc1ncnc2c1ncn2[C@@H]1O[C@H](COP(=O)(O)OP(=O)(O)O)[C@@H](O)[C@H]1O` [ADP] the “X-ray crystal structure, 2.4 A” value [1] was “ADP and glutamate, of presumed cellular origin, were resolved in the RimKPA structure”.

In the case of `Nc1nc2c(ncn2[C@@H]2O[C@@H]3COP(=O)(O)O[C@H]4[C@@H](O)[C@H](n5cnc6c(=O)[nH]c(N)nc65)O[C@@H]4COP(=O)(O)O[C@H]3[C@H]2O)c(=O)[nH]1` [cyclic-di-GMP], the “PK/LDH-coupled ATPase assay, NADH oxidation at 340 nm” value [2] is reported as “the addition of cdG stimulated ATPase activity for both proteins” and the “PK/LDH-coupled ATPase assay, NADH oxidation at 340 nm” value [3] is reported as “the addition of cdG stimulated ATPase activity for both proteins”.

For “P. aeruginosa PAO1 RimK (from UniProt B7V3U4 1-301) (enzyme)”, the stoichiometry N [4] was 4.

RimB of P. syringae (enzyme) was tested, and the RimKPS ATPase activity (linked PK/LDH assay) against RimBPS 0–1.2 mM, fitted K m [5] was 120 µM and the RimKPS ATPase activity (linked PK/LDH assay) against RimBPS 0–1.2 mM, fitted V max [5] was 692.

B1: P. syringae pv. tomato DC3000 RimK (enzyme, UniProt Q88AZ9 1-301, looked up)
chain: T2 sequence (Q88AZ9 1-301)
notes: RimK, ATP-dependent glutamate ligase, P. syringae pv. tomato DC3000; open reading frame of rimK cloned into pET29a; Tetramer in the crystal; 16 copies in the asymmetric unit; also called RimKPS; RimKPs; source: E. coli BL21 (DE3) pLysS, purified (His-Trap Excel column)
For B1, the “stoichiometry N” value [6] was 4 and the Km ([7]; a separate series in Figure S1 prints K m = 1.85 mM) was 1000 µM.

B2: RimKPF (Pseudomonas [fluorescens] SBW25) (protein)
chain: MKIAVLSRNPRLYSTRRLVEAGVERGHEMVVIDTLRAYMNIASHKPQIHYRGKPLEGFDAVIPRIGASVTFYGCAVLRQFEMMGVFPLNESVAIARSRDKLRSLQLLSRRGIGLPVTGFAHSPDDIPDLIDMVNGAPLVIKVLEGTQGIGVVLCETATAAESVIEAFMGLKQNIMVQEYIKEAGGADIRCFVVGDKVIAAMKRQAKPGEFRSNLHRGGSASLIKITPEERMTALRAAKVMGLSVAGVDILRSNHGPLVMEVNSSPGLEGIETTTGKNVAGIIIEHLEKNGGPNMTRTKGKG
notes: purified recombinant RimK
Work on B2 yielded a Km [8] of 800 µM.

B3: RimKPA (Pseudomonas aeruginosa PAO1) (protein)
chain: T1 sequence (Q9HTZ2 1-301)
B3 showed a Km ([7]; a separate series in Figure S1 prints K m = 2.1 mM) of 300 µM.
